Among the data in patent US20210017275A1 (Alector, published 2021) are % Positive, MFI and Percent RBC Binding to Siglec-5 values, retold here.

The target in test [1] is human Siglec-5 expressed on human primary cells (human) (UniProt O15389). Kind of test: flow cytometry, human primary neutrophils, isotype control.
Test [2] deals with T1, Human Siglec 5, Fc chimera (R&D Systems) (human, UniProt O15389 17-434, limits assumed).
T1 construct: Bought or recombinant Fc fusion; also called recombinant Siglec-5-Fc; not shown: Fc part
T1 sequence: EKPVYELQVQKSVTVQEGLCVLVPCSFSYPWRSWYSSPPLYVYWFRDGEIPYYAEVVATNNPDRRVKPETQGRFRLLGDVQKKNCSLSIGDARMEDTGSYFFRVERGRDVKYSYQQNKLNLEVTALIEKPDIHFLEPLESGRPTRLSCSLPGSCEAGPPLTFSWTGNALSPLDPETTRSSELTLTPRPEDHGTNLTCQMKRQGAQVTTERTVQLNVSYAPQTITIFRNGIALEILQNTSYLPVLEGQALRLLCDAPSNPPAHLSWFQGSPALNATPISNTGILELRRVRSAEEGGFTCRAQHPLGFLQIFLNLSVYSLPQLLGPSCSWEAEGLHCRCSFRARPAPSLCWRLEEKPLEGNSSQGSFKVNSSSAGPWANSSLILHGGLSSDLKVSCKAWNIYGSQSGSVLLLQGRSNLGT
Kind of test: RBC adhesion to plate-bound Siglec-5-Fc, 1.0 ug/ml isotype control, percent of binding without antibody.

Test [3] addresses human Siglec-5 expressed on human primary cells (human) (UniProt O15389). Kind of test: flow cytometry, human primary macrophages, isotype control.
Test [4] concerns the target T1, Human Siglec 5, Fc chimera (R&D Systems). Kind of test: RBC adhesion to plate-bound Siglec-5-Fc, 0.3 ug/ml isotype control, percent of binding without antibody.
The target in test [5] is human Siglec-5 expressed on human primary cells (human) (UniProt O15389). Kind of test: flow cytometry, human primary monocytes, isotype control. A general note: Flow cytometry measures light scatter and fluorescence of single cells or particles in a stream.
Test [6] has the same target. Kind of test: flow cytometry, human primary dendritic cells, isotype control.
Test [7] shares this target. Kind of test: flow cytometry, human primary neutrophils, secondary antibody only (no primary antibody), background control.
Test [8] shares this target. Kind of test: flow cytometry, human primary macrophages, secondary antibody only (no primary antibody), background control.
For test [9] the target is unchanged. The test is described as follows: flow cytometry, human primary dendritic cells, secondary antibody only (no primary antibody), background control.
Test [10] has the same target. The test is described as follows: flow cytometry, human primary monocytes, secondary antibody only (no primary antibody), background control.

As for mouse IgG1 isotype control antibody, the % Positive in test [1] turned out to be 1.3%; in [3], 21.9%; in [5], 10.7%; in test [6] it was 6.7%. Moreover, the MFI in [1] came out at 53.7; in test [3] it was 305; in [5], 126; in test [6], 98. Besides, the Percent RBC Binding to Siglec-5 in test [2] was 102%; in test [4] it was 100%.
Regarding PE-conjugated secondary antibody, the % Positive in test [7] amounted to 3.42%; in [8], 5.4%; in [9], 2.1%; in test [10], 8.2%. Also, the MFI in [7] worked out at 62.1; in [8], 221; in [9] it was 87; in test [10], 104.
